How the values were obtained:
human APRIL protein [1] = biological target: T1, human APRIL protein (human, UniProt O75888 105-250, limits assumed); assay: ELISA, coated APRIL
T1 construct: Bought protein; also called recombinant APRIL protein
T1 sequence (looked up): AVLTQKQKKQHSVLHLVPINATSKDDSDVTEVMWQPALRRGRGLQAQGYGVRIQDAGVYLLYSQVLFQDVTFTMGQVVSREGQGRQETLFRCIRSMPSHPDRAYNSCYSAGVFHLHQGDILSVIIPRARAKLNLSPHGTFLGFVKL
Method: To test whether the BLyS antibody cross-reacted with human APRIL protein, APRIL protein (purchased from R & D Systems) was first diluted to a final concentration of 1.0 μg/mL with PBS, and then 50 μL of which per well was aliquoted into a 96-well ELISA plate, and the plate was subsequently sealed with plastic film and incubated at 4° C. overnight. On the next day the plate was rinsed four times with the plate washing buffer [PBS buffer containing 0.0500 (v/v) Tween20] and a blocking solution [PBS buffer containing 0.05 (v/v) Tween20 and 1 (w/w) BSA] was added, then the protein was blocked at 37° C. for 2 hours. The blocking solution was removed and 100 μL per well of the lead antibodies prepared in Embodiment 1 and 2 were added in. After incubation for 1 hour at 37° C., the plate was rinsed four times with the plate washing buffer [PBS buffer containing 0.05 (v/v) Tween20]. HRP-labeled (horseradish peroxidase) secondary antibody (purchased from Sigma) was added in and incubated at 37° C. for 1 hour. The plate was then rinsed four times with the plate washing buffer [PBS buffer containing 0.050 (v/v) Tween20]. […] A₄₅₀ₙₘ values were read via an ELISA plate reader (SpectraMax M5e purchased from Molecular Devices) and the results were shown in FIGS. 6A-6B and Table 11. […]

human APRIL protein [2] = biological target: T1, human APRIL protein; assay: ELISA, coated APRIL; antibody 13.3 nM
Outline: (§1)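 Cross-reactivity of BLyS antibodies with human APRIL is measured by ELISA. Wells are coated overnight at 4 °C with 1.0 μg/mL APRIL and blocked 2 h at 37 °C; antibodies, then HRP secondary, are each applied 1 h at 37 °C, and TMB colour is read at 450 nm.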

human APRIL protein [3] = biological target: T1, human APRIL protein; assay: ELISA, coated APRIL; antibody 2.67 nM
Outline: as §1

human APRIL protein [4] = biological target: T1, human APRIL protein; assay: ELISA, coated APRIL; antibody 66.7 nM
Outline: as §1

human APRIL protein [5] = biological target: T1, human APRIL protein; assay: ELISA, coated APRIL; antibody 0.107 nM
Outline: as §1

human APRIL protein [6] = biological target: T1, human APRIL protein; assay: ELISA, coated APRIL; antibody 0.534 nM
Outline: as §1

human APRIL protein [7] = biological target: T1, human APRIL protein; assay: ELISA, coated APRIL; antibody 0.0213 nM
Outline: as §1

human APRIL protein [8] = biological target: T1, human APRIL protein; assay: ELISA, coated APRIL; antibody 0.00427 nM
Outline: as §1

human APRIL protein [9] = biological target: T1, human APRIL protein; assay: ELISA, coated APRIL; antibody 0 nM (blank)
Outline: as §1

B1: 67A2E1D10 (antibody, V domains shown)
VH: EVQLQQSGAELVKPGASVKLSCTASGFNIKNYYMHWVKQRTEEGLEWIGRIDPEDGETKYAPKFQAKATITADTSSNTAYLQLSSLTSEDTAVYFCARKGYYGNYGAWFAYWGQGTLVTVSA
VL: DIQMTQSPASLSVSVGETVTITCRASEDLYSNLAWYQQKQGKSPQLLVYAATFLADGVPSRFSGSGSGTQYSLKINSLQSEDFGNYYCQHFWGTPPTFGGGTKLEIK
notes: Mouse hybridoma antibody purified on Protein G
binding result (human APRIL protein [1]): no binding (tested: 66.7 nM)
OD450 nm (human APRIL protein [2]): 0.0898
OD450 nm (human APRIL protein [3]): 0.0673
OD450 nm (human APRIL protein [4]): 0.264
OD450 nm (human APRIL protein [5]): 0.0588
OD450 nm (human APRIL protein [6]): 0.058
OD450 nm (human APRIL protein [7]): 0.0563
OD450 nm (human APRIL protein [8]): 0.0553
OD450 nm (human APRIL protein [9]): 0.053

Source: US20210347873A1 (SHANGHAI PHARMAEXPLORER, published 2021)
